Our source for the Kd values is publication PMC12510318.

Assay in all cases: EMSA
Holding throughout (conditions): EMSA: 6 ng 32P-satBaMV riboprobe, 2 U RNasin, 15 ul CAPS buffer (pH and salt not given), 20 min on ice; 4-12% NuPAGE in MES buffer at 4 C
Background: In EMSA bound probe runs differently from free probe, usually more slowly.

Data set [1] deals with rFIB (NbFIB2) WT (Nicotiana benthamiana).
Data set [2] concerns rFIB D227A (Nicotiana benthamiana).
Data set [3] deals with rFIB K134A (Nicotiana benthamiana).
Data set [4] concerns rFIB K256A (Nicotiana benthamiana).
Data set [5] concerns rFIB triple mutant (Nicotiana benthamiana).
In data set [6] the test system is rP20 WT (bamboo mosaic virus satellite RNA (satBaMV)).

Usually Kd stands for a measure of binding affinity in units of concentration. With satBaMV riboprobe, the Kd in data set [1] was 0.05 µM; in data set [2], 0.35 µM; in data set [3], 0.14 µM; in data set [4] it was 0.35 µM; in data set [5] it was 1.23 µM; in data set [6] it was 0.032 µM.
